The target of data set [1] is T1, sulfate adenylyl transferase (Sat) / ATP sulfurylase (Oleidesulfovibrio alaskensis, UniProt Q30Z34).
T1 construct: gene Dde_2265
T1 sequence (Q30Z34 1-427): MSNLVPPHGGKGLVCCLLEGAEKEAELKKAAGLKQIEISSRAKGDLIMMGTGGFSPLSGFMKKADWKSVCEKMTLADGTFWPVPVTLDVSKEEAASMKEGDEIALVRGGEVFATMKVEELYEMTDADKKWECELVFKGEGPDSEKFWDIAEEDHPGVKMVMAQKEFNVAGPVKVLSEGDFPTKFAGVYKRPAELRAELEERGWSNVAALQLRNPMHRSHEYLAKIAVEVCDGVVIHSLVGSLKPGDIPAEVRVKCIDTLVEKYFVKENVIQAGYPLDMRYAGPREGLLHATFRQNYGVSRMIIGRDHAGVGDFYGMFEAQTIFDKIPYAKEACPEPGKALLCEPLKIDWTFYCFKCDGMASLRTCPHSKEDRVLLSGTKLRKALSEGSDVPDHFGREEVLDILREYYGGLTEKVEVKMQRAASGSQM
The data set is described as follows: pyrophosphate accumulation, modified molybdenum blue assay.

Substrate in data set [2]: O=[Se](=O)(O)O
The data set is described as follows: purified protein.

Substrate in data set [3]: [O]=[Cr](=[O])([OH])[OH]
Kind of data set: purified protein. The conditions noted are these: alternative substrate in place of sulfate; co-substrate ATP.

Regarding `[O-][Cl+2]([O-])O` [ClO3^−], the Ki (as a rule, a measure of affinity in units of concentration, obtained from inhibition or displacement) in data set [1] was 0.316 ± 0.017 mM.

With `O=[N+]([O-])O` [NO3^−], in data set [1], the Ki stood at 3.6 ± 0.27 mM.

B1: sulfate adenylyl transferase (Sat) / ATP sulfurylase (Oleidesulfovibrio alaskensis G20) (protein)
chain: T1 sequence (Q30Z34 1-427)
As for B1, in “purified protein [2]”, the Km (usually the substrate concentration at which the rate is half of its maximum) turned out to be 1770 ± 550 µM and the kcat/Km (usually the turnover number divided by the Michaelis constant) is 160 M⁻¹ s⁻¹. In addition, in the data set “purified protein [3]”, the Km is 793 ± 140 µM, the kcat (commonly the maximal rate divided by the concentration of active sites) worked out at 16 s⁻¹ and the kcat/Km was found to be 20000 M⁻¹ s⁻¹.

These data come from paper PMC9723548, “Sulfate adenylyl transferase kinetics and mechanisms of metabolic inhibitors of microbial sulfate respiration” (ISME Communications, 2021).
